In paper PMC10508174 (Cell reports, 2023):

T1: SARNP (residues 1-210) (human, UniProt P82979 1-210)
T1 sequence (looked up): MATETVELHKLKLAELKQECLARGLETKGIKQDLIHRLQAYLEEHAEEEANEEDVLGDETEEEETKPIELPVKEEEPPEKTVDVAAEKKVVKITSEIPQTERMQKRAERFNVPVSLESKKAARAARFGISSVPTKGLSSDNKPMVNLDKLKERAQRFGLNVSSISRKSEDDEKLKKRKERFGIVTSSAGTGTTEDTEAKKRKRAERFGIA

T2: SARNP-mut2 (R153A/F157A/R177A/F181A/R203A/F207A) (human, UniProt P82979 1-210, R153A | F157A | R177A | F181A | R203A | F207A)
T2 sequence (looked up): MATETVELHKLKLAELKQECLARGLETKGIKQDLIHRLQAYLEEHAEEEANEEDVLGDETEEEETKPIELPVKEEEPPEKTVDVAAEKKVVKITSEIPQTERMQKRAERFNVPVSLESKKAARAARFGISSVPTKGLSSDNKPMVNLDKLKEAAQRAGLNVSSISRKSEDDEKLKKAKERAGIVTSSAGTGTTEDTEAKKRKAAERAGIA

B1: DDX39B-CTD (residues 259-428) (domain or fragment, human, UniProt Q13838 259-428, looked up)
chain: LHGLQQYYVKLKDNEKNRKLFDLLDVLEFNQVVIFVKSVQRCIALAQLLVEQNFPAIAIHRGMPQEERLSRYQQFKDFQRRILVATNLFGRGMDIERVNIAFNYDMPEDSDTYLHRVARAGRFGTKGLAITFVSDENDAKILNDVQDRFEVNISELPDEIDISSYIEQTR
B2: Tho1 (residues 123-178) (domain or fragment, S. cerevisiae, UniProt P40040 123-178, looked up)
chain: EEIKAKALDLLNKKLHRANKFGQDQADIDSLQRQINRVEKFGVDLNSKLAEELGLV

Assays:
SARNP (residues 1-210) = target: T1, SARNP (residues 1-210); test: MST
[1] = target: T2, SARNP-mut2 …; test: MST
DDX39B (residues 44-428) = DDX39B (residues 44-428) (human, UniProt Q13838 44-428); test: crystal structure

Binder | EC50 (SARNP (residues 1-210)) | EC50 [1] | binding result (DDX39B (residues 44-428))
B1 | 1300 nM | 3000 nM | 
B2 |  |  | binds
